In IntAct's records for PubMed 31515488:

B1: Coiled-coil domain-containing protein 42 (Homo sapiens), Q96M95 (parent)
chain: MSLGIMEEEDLAEYFRLQYGERLLQMLQKLPNVEGASESPSIWLLEKKKETEIMHQTMVQKKKMFQRRMETLNLRWEELGVKEAQLKAHIQKSEQFIQENDQKRIRAMKKANKERELKCQHMQELTKRKQEMVALRLEHQRLSAKLKDYYIFNKYLEKVVENSEFEEIHEVIARYKTLVSMRHDLMQSAQEGQEKIERAKARLARYMEEKDDEILQQNNELARLQMRFDRARSNVIFWESRWAHIQNTAAKKTLLLGTIKMATLNLFQIVSKHLKEVTEVALEDTHKQLDMIQQFIQDRSDIWAEVKKKEQQRVRI
B2: Zinc finger protein Aiolos (Homo sapiens), Q9UKT9 (parent)
chain: MEDIQTNAELKSTQEQSVPAESAAVLNDYSLTKSHEMENVDSGEGPANEDEDIGDDSMKVKDEYSERDENVLKSEPMGNAEEPEIPYSYSREYNEYENIKLERHVVSFDSSRPTSGKMNCDVCGLSCISFNVLMVHKRSHTGERPFQCNQCGASFTQKGNLLRHIKLHTGEKPFKCHLCNYACQRRDALTGHLRTHSVEKPYKCEFCGRSYKQRSSLEEHKERCRTFLQSTDPGDTASAEARHIKAEMGSERALVLDRLASNVAKRKSSMPQKFIGEKRHCFDVNYNSSYMYEKESELIQTRMMDQAINNAISYLGAEALRPLVQTPPAPTSEMVPVISSMYPIALTRAEMSNGAPQELEKKSIHLPEKSVPSERGLSPNNSGHDSTDTDSNHEERQNHIYQQNHMVLSRARNGMPLLKEVPRSYELLKPPPICPRDSVKVINKEGEVMDVYRCDHCRVLFLDYVMFTIHMGCHGFRDPFECNMCGYRSHDRYEFSSHIARGEHRALLK
partner: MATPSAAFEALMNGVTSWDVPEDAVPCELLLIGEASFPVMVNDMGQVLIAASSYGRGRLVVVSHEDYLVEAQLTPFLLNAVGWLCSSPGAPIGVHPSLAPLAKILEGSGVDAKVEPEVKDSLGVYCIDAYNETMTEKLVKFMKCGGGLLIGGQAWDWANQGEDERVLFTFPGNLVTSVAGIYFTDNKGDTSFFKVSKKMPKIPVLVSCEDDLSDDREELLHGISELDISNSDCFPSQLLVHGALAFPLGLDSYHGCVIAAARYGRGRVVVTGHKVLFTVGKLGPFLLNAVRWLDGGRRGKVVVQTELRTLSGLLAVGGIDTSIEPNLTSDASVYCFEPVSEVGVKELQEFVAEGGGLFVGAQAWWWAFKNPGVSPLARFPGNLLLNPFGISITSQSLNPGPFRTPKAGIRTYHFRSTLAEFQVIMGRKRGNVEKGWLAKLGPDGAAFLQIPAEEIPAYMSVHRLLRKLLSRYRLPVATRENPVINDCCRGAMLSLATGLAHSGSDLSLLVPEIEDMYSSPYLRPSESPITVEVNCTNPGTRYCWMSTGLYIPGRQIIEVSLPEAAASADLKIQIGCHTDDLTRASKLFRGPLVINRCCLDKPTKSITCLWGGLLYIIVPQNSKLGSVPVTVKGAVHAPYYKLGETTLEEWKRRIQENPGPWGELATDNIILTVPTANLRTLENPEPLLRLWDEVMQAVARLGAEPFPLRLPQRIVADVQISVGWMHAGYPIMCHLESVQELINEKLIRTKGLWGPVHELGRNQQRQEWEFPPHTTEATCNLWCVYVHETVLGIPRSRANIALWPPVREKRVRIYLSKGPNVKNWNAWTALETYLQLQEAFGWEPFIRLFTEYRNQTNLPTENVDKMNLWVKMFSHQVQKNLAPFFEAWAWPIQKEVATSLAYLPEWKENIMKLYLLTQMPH
B3: Proton-coupled zinc antiporter SLC30A2 (Homo sapiens), Q9BRI3 (parent)
chain: MEAKEKQHLLDARPAIRSYTGSLWQEGAGWIPLPRPGLDLQAIELAAQSNHHCHAQKGPDSHCDPKKGKAQRQLYVASAICLLFMIGEVVGGYLAHSLAVMTDAAHLLTDFASMLISLFSLWMSSRPATKTMNFGWQRAEILGALVSVLSIWVVTGVLVYLAVERLISGDYEIDGGTMLITSGCAVAVNIIMGLTLHQSGHGHSHGTTNQQEENPSVRAAFIHVIGDFMQSMGVLVAAYILYFKPEYKYVDPICTFVFSILVLGTTLTILRDVILVLMEGTPKGVDFTAVRDLLLSVEGVEALHSLHIWALTVAQPVLSVHIAIAQNTDAQAVLKTASSRLQGKFHFHTVTIQIEDYSEDMKDCQACQGPSD
partner: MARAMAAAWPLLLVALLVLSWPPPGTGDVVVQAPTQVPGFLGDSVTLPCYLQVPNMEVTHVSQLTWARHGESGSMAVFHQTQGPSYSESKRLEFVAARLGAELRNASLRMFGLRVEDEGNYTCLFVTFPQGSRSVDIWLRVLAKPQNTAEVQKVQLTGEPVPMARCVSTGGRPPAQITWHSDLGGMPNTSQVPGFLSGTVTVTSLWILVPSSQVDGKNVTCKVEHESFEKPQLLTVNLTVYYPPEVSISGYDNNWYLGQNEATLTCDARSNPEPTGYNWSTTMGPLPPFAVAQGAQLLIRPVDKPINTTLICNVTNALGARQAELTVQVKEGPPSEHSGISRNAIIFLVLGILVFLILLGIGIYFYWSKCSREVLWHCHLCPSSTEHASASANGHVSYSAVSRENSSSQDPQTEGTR
B4: Origin recognition complex subunit 6 (Homo sapiens), Q9Y5N6 (parent)
chain: MGSELIGRLAPRLGLAEPDMLRKAEEYLRLSRVKCVGLSARTTETSSAVMCLDLAASWMKCPLDRAYLIKLSGLNKETYQSCLKSFECLLGLNSNIGIRDLAVQFSCIEAVNMASKILKSYESSLPQTQQVDLDLSRPLFTSAALLSACKILKLKVDKNKMVATSGVKKAIFDRLCKQLEKIGQQVDREPGDVATPPRKRKKIVVEAPAKEMEKVEEMPHKPQKDEDLTQDYEEWKRKILENAASAQKATAE
partner: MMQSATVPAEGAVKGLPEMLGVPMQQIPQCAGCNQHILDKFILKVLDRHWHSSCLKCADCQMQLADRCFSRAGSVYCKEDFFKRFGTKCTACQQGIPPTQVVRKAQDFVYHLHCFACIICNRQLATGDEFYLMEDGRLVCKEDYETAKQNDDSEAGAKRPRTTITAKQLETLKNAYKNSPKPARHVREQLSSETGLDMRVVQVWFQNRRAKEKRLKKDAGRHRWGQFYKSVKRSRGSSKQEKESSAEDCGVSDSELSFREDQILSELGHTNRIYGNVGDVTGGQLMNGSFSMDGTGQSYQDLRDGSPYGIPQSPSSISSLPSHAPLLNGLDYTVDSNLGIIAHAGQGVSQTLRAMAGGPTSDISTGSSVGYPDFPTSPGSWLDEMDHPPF
B5: Tuftelin-interacting protein 11 (Homo sapiens), Q9UBB9 (parent)
chain: MSLSHLYRDGEGRIDDDDDERENFEITDWDLQNEFNPNRQRHWQTKEEATYGVWAERDSDDERPSFGGKRARDYSAPVNFISAGLKKGAAEEAELEDSDDEEKPVKQDDFPKDFGPRKLKTGGNFKPSQKGFAGGTKSFMDFGSWERHTKGIGQKLLQKMGYVPGRGLGKNAQGIINPIEAKQRKGKGAVGAYGSERTTQSMQDFPVVDSEEEAEEEFQKELSQWRKDPSGSKKKPKYSYKTVEELKAKGRISKKLTAPQKELSQVKVIDMTGREQKVYYSYSQISHKHNVPDDGLPLQSQQLPQSGKEAKAPGFALPELEHNLQLLIDLTEQEIIQNDRQLQYERDMVVNLFHELEKMTEVLDHEERVISNLSKVLEMVEECERRMQPDCSNPLTLDECARIFETLQDKYYEEYRMSDRVDLAVAIVYPLMKEYFKEWDPLKDCTYGTEIISKWKSLLENDQLLSHGGQDLSADAFHRLIWEVWMPFVRNIVTQWQPRNCDPMVDFLDSWVHIIPVWILDNILDQLIFPKLQKEVENWNPLTDTVPIHSWIHPWLPLMQARLEPLYSPIRSKLSSALQKWHPSDSSAKLILQPWKDVFTPGSWEAFMVKNIVPKLGMCLGELVINPHQQHMDAFYWVIDWEGMISVSSLVGLLEKHFFPKWLQVLCSWLSNSPNYEEITKWYLGWKSMFSDQVLAHPSVKDKFNEALDIMNRAVSSNVGAYMQPGARENIAYLTHTERRKDFQYEAMQERREAENMAQRGIGVAASSVPMNFKDLIETKAEEHNIVFMPVIGKRHEGKQLYTFGRIVIYIDRGVVFVQGEKTWVPTSLQSLIDMAK
partner: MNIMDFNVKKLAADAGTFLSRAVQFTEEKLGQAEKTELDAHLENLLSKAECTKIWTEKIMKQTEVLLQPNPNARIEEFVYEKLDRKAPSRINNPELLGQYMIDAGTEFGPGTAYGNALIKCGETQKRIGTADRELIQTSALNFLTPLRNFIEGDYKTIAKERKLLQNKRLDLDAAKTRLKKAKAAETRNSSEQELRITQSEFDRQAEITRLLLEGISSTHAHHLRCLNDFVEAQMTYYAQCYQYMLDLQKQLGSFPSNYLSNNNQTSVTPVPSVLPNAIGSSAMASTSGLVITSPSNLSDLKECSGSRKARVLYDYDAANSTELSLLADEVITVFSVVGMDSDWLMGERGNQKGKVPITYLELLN
B6: Ribosome quality control complex subunit TCF25 (Homo sapiens), Q9BQ70 (parent)
chain: MSRRALRRLRGEQRGQEPLGPGALHFDLRDDDDAEEEGPKRELGVRRPGGAGKEGVRVNNRFELINIDDLEDDPVVNGERSGCALTDAVAPGNKGRGQRGNTESKTDGDDTETVPSEQSHASGKLRKKKKKQKNKKSSTGEASENGLEDIDRILERIEDSTGLNRPGPAPLSSRKHVLYVEHRHLNPDTELKRYFGARAILGEQRPRQRQRVYPKCTWLTTPKSTWPRYSKPGLSMRLLESKKGLSFFAFEHSEEYQQAQHKFLVAVESMEPNNIVVLLQTSPYHVDSLLQLSDACRFQEDQEMARDLVERALYSMECAFHPLFSLTSGACRLDYRRPENRSFYLALYKQMSFLEKRGCPRTALEYCKLILSLEPDEDPLCMLLLIDHLALRARNYEYLIRLFQEWEAHRNLSQLPNFAFSVPLAYFLLSQQTDLPECEQSSARQKASLLIQQALTMFPGVLLPLLESCSVRPDASVSSHRFFGPNAEISQPPALSQLVNLYLGRSHFLWKEPATMSWLEENVHEVLQAVDAGDPAVEACENRRKVLYQRAPRNIHRHVILSEIKEAVAALPPDVTTQSVMGFDPLPPSDTIYSYVRPERLSPISHGNTIALFFRSLLPNYTMEGERPEEGVAGGLNRNQGLNRLMLAVRDMMANFHLNDLEAPHEDDAEGEGEWD
partner: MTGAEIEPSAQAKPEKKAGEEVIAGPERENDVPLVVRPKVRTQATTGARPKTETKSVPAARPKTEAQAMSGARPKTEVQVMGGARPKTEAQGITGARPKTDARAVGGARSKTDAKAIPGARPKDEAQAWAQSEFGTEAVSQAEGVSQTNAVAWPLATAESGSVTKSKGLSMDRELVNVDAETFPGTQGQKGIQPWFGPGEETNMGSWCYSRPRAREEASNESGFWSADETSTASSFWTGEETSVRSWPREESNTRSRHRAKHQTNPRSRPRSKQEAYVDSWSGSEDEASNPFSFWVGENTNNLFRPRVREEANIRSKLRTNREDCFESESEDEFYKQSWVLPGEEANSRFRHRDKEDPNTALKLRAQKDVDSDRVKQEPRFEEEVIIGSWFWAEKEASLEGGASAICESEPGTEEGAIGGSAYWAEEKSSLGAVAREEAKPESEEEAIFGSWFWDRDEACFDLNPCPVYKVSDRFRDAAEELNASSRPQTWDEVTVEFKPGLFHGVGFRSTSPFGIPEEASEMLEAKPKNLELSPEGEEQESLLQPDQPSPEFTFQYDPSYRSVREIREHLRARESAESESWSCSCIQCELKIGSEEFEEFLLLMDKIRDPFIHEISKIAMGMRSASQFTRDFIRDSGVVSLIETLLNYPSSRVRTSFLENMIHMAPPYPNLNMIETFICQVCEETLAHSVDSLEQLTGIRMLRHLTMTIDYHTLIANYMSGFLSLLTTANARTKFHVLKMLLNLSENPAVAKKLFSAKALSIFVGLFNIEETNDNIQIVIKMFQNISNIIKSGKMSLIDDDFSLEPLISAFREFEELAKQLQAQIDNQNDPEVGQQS

Variants of: B1
Settings: with trim1_human MID2, Q9UJV3
trim1_human MID2, Q9UJV3, sequence (Q9UJV3 whole entry): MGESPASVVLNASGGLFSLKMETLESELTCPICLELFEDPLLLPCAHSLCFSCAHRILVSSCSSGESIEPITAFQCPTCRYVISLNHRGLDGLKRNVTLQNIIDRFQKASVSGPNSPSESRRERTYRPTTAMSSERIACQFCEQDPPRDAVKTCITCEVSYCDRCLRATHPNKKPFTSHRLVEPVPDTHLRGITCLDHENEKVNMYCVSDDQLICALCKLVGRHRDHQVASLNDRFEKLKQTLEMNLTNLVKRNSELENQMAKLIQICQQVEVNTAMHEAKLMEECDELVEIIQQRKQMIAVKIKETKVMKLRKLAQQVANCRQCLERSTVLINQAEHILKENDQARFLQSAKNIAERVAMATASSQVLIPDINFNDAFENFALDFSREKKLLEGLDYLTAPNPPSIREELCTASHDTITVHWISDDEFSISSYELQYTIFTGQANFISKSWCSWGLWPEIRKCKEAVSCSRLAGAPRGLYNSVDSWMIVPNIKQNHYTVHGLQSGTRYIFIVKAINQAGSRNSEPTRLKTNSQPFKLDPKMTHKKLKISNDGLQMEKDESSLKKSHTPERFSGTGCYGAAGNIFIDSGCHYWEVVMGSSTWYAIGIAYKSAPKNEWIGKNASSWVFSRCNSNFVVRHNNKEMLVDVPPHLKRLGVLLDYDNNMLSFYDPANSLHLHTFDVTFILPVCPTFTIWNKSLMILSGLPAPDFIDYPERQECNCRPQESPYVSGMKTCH

Variant | effect of a mutation on the interaction
R128H | with no effect
A144T | with no effect

Variants of: B1
Settings: with tfp11_human TFIP11, Q9UBB9

Variant | effect of a mutation on the interaction
R128H | with no effect
A144T | with no effect

Variants of: B2
Settings: with tcaf1_human TCAF1, Q9Y4C2

Variant | effect of a mutation on the interaction
A24V | with no effect
N119D | with no effect

Variants of: B3
Settings: with pvr_human PVR

Variant | effect of a mutation on the interaction
T181M | with no effect

Variants of: B4
Settings: with lhx4_human LHX4, Q969G2

Variant | effect of a mutation on the interaction
K201N | with no effect

Variants of: B5
Settings: with shlb1_human SH3GLB1, Q9Y371

Variant | effect of a mutation on the interaction
S688L | with no effect
R8Q | with no effect

Variants of: B6
Settings: with gasp2_human GPRASP2, Q96D09

Variant | effect of a mutation on the interaction
V526A | with no effect
